Measurements taken from the supplement of paper PMC7877785.
± gives the uncertainty stated by the source.

Assay: self-splicing fitness, log relative to wild type (ln ratio); higher = more splicing; Tetrahymena group I intron in knt gene, E. coli kanamycin selection, DiMSum; sequences stand for … in CUCUCU…GGAGGGAAAAGUUAUCAGGCAUGCACCUGGUAGCUAGUCUUUAAACCAAUAGAUUGCAUCGGUUUAAAAGGCAAGACCGUCAAAUUGCGGGAAAGGGGUCAACAGCCGUUCAGUACCAAGUCUCAGGGGAAACUUUGAGAUGGCCUUGCAAAGGGUAUGGUAAUAAGCUGACGGACAUGGUCCUAACCACGCAGCCAAGUCCUAAGUCAACAGAUCUUCUGUUGAUAUGGAUGCAGUUCACAGACUAAAUGUCGGUCGGGGAAGAUGUAUUCUUCUCAUAAGAUAUAGUCGGACCUCUCCUUAAUGGGAGCUAGCGGAUGAAGUGAUGCAACACUGGAGCCGCUGGGAACUAAUUUGUAUGCGAAAGUAUAUUGAUUAGUUUUGGAGUACUCGUGGUCG
Method in brief: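 The eight P1ex-region nucleotides of an intron in the knt kanamycin-resistance gene on pET-22b(+) were all randomised and the library put into E. coli BL21(DE3). Six replicate transformations were grown overnight at 37°C or 30°C on LB agar with or without 25 μg/mL kanamycin, together with 100 μg/mL carbenicillin, 50 μM IPTG and 0.2% rhamnose. Colonies were pooled and amplicon-sequenced on an Illumina HiSeq 2500. Fitness from DiMSum is the error-weighted combination of wild-type-normalised replicate fold changes, kanamycin over none.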

Sequence | self-splicing fitness (ln) (37 °C) | self-splicing fitness (ln) (30 °C)
UGUGAGCAAUAUUACGCAUC | -2.15 ± 0.26 | –
GUGUAGCAAUAUUACGAUAC | -1.01 ± 0.25 | -2.23 ± 0.25
CGGAAGCAAUAUUACGUUGA | -2.65 ± 0.15 | -3.33 ± 0.16
GAGGAGCAAUAUUACGUAUA | -2.74 ± 0.4 | –
AAAUAGCAAUAUUACGGCAC | 0.0337 ± 0.12 | -0.691 ± 0.1
GAGUAGCAAUAUUACGGUCA | 0.0478 ± 0.12 | -0.51 ± 0.12
AGUGAGCAAUAUUACGGGCU | -2.72 ± 0.3 | -4.57 ± 0.39
GGAAAGCAAUAUUACGGGUC | -1.92 ± 0.14 | -3.66 ± 0.24
UGGAAGCAAUAUUACGUAGA | -1.01 ± 0.13 | -2.06 ± 0.13
GUCCAGCAAUAUUACGCCCA | -0.451 ± 0.21 | 0.224 ± 0.26
GAUUAGCAAUAUUACGUUCU | -2.07 ± 0.1 | -2.91 ± 0.11
UGCAAGCAAUAUUACGGCGA | -0.21 ± 0.11 | -0.0647 ± 0.094
AGAUAGCAAUAUUACGAUUU | 0.527 ± 0.11 | -0.348 ± 0.084
AAGUAGCAAUAUUACGUCAG | -2.43 ± 0.18 | -3.38 ± 0.19
GGAGAGCAAUAUUACGCGCG | -1.26 ± 0.13 | -2.27 ± 0.11
AUCGAGCAAUAUUACGAAUG | -2.06 ± 0.28 | –
UCGCAGCAAUAUUACGCCCU | -0.902 ± 0.15 | -1.18 ± 0.13
AAAUAGCAAUAUUACGAGCG | -0.208 ± 0.15 | -1.75 ± 0.17
CACGAGCAAUAUUACGAAGA | -3.38 ± 0.27 | -2.89 ± 0.22
GAUUAGCAAUAUUACGGGAG | -2.8 ± 0.38 | -2.81 ± 0.24
GCAAAGCAAUAUUACGGAGG | -1.62 ± 0.14 | -1.9 ± 0.1
UCUUAGCAAUAUUACGAGUA | -1.19 ± 0.27 | -0.787 ± 0.26
UAGAAGCAAUAUUACGAUGU | -1.69 ± 0.19 | -3.01 ± 0.18
UAAAAGCAAUAUUACGCGGG | -1.43 ± 0.12 | -2.62 ± 0.1
CCAAAGCAAUAUUACGAGUC | -2.04 ± 0.19 | -3.73 ± 0.2

Sequence | self-splicing fitness (ln) (37 °C) | self-splicing fitness (ln) (30 °C)
CUUUAGCAAUAUUACGUGGC | -2.47 ± 0.44 | –
CUUUAGCAAUAUUACGCCUG | -0.204 ± 0.14 | -0.484 ± 0.11
ACCUAGCAAUAUUACGGGUC | -2.57 ± 0.23 | -4.05 ± 0.23
CUUAAGCAAUAUUACGAGUU | -2.42 ± 0.36 | –
UGAUAGCAAUAUUACGGCUC | -1.29 ± 0.17 | -2.21 ± 0.15
GUUAAGCAAUAUUACGAAUG | -1.59 ± 0.21 | -2.32 ± 0.24
UCCCAGCAAUAUUACGGUCG | -0.748 ± 0.078 | -1.76 ± 0.071
UUGUAGCAAUAUUACGUCCU | -0.583 ± 0.17 | -1.48 ± 0.15
CAGUAGCAAUAUUACGGAAG | -0.317 ± 0.14 | -1.9 ± 0.15
AGAGAGCAAUAUUACGUUCU | -2.26 ± 0.45 | -3.19 ± 0.41
AAGUAGCAAUAUUACGUCAA | -0.583 ± 0.083 | -2.25 ± 0.1
UAGGAGCAAUAUUACGGUCC | -0.78 ± 0.26 | -3.93 ± 0.37
GAAAAGCAAUAUUACGCGCG | -0.478 ± 0.11 | -0.276 ± 0.076
CCUCAGCAAUAUUACGAGAA | -2.28 ± 0.29 | -3.3 ± 0.41
AGAUAGCAAUAUUACGAAAG | -1.23 ± 0.21 | -2.68 ± 0.2
CCCCAGCAAUAUUACGAUCC | -0.776 ± 0.32 | -3.27 ± 0.27
UGUCAGCAAUAUUACGCCUU | -0.87 ± 0.14 | -1.38 ± 0.13
CCUGAGCAAUAUUACGGCCU | -2.96 ± 0.3 | -2.68 ± 0.17
AUGGAGCAAUAUUACGCGAA | -2.36 ± 0.29 | -1.66 ± 0.31
GGAGAGCAAUAUUACGAUAU | -0.657 ± 0.16 | -3.43 ± 0.24
AAUCAGCAAUAUUACGGUCU | -0.224 ± 0.071 | -0.356 ± 0.06
UAAAAGCAAUAUUACGGUGG | -1.43 ± 0.089 | -2.08 ± 0.088
CAGGAGCAAUAUUACGGAUU | -2.52 ± 0.37 | -3.18 ± 0.23
GGACAGCAAUAUUACGAUGU | -0.961 ± 0.057 | -2.12 ± 0.055
AGGAAGCAAUAUUACGUGUG | -1.85 ± 0.095 | -2.29 ± 0.077

Sequence | self-splicing fitness (ln) (37 °C) | self-splicing fitness (ln) (30 °C)
GCAGAGCAAUAUUACGGAUU | – | -3.62 ± 0.3
UGUAAGCAAUAUUACGGCUG | -0.152 ± 0.11 | 0.2 ± 0.1
GUGAAGCAAUAUUACGGCAA | 0.552 ± 0.11 | 0.587 ± 0.084
AGUAAGCAAUAUUACGGACA | -0.393 ± 0.11 | -0.314 ± 0.091
UAAGAGCAAUAUUACGCUGU | -2.22 ± 0.34 | -3.35 ± 0.45
UCAAAGCAAUAUUACGUCUU | -3.03 ± 0.17 | -4.01 ± 0.18
ACAUAGCAAUAUUACGCCUG | -0.622 ± 0.15 | -0.96 ± 0.16
UCCAAGCAAUAUUACGGGUU | -1.75 ± 0.097 | -3.89 ± 0.14
ACUCAGCAAUAUUACGAUUU | 0.417 ± 0.073 | 0.00163 ± 0.057
AACAAGCAAUAUUACGAGUA | -0.465 ± 0.08 | -1.5 ± 0.078
UAGGAGCAAUAUUACGAGGG | -2.35 ± 0.33 | -3.6 ± 0.42
GUUUAGCAAUAUUACGUCAC | -0.353 ± 0.17 | -3.24 ± 0.24
CCGAAGCAAUAUUACGUCGU | -0.687 ± 0.077 | -1.94 ± 0.074
UCCAAGCAAUAUUACGCCGC | – | -2.64 ± 0.32
GCAGAGCAAUAUUACGGACC | -0.0809 ± 0.29 | -3.65 ± 0.37
UAACAGCAAUAUUACGGUGC | -2.86 ± 0.2 | -3.42 ± 0.23
AGUGAGCAAUAUUACGUCAA | -2.79 ± 0.36 | -0.971 ± 0.2
CAUUAGCAAUAUUACGGUCC | -1.72 ± 0.34 | –
CGACAGCAAUAUUACGAGUA | -1.52 ± 0.12 | -3.58 ± 0.18
CAGAAGCAAUAUUACGGUCU | -1.09 ± 0.082 | -1.52 ± 0.064
CUGAAGCAAUAUUACGGGGU | -0.289 ± 0.17 | -3.34 ± 0.24
CCCCAGCAAUAUUACGAUGC | -3.15 ± 0.29 | -3.46 ± 0.16
GCUUAGCAAUAUUACGCUGC | -2.38 ± 0.42 | -3.09 ± 0.35
AGUAAGCAAUAUUACGCUCU | -1.59 ± 0.27 | -1.96 ± 0.2
AACCAGCAAUAUUACGUGGC | -2.99 ± 0.17 | -3.06 ± 0.12

Sequence | self-splicing fitness (ln) (37 °C) | self-splicing fitness (ln) (30 °C)
CCGGAGCAAUAUUACGCAGC | -2.52 ± 0.37 | –
AUCCAGCAAUAUUACGAGUC | -2.01 ± 0.21 | -2.87 ± 0.17
CAUUAGCAAUAUUACGAGCU | -2.7 ± 0.44 | -2.57 ± 0.33
GGUAAGCAAUAUUACGAUAU | 0.242 ± 0.2 | -0.847 ± 0.15
UUCUAGCAAUAUUACGUUCG | -1.29 ± 0.16 | -2.17 ± 0.14
CAAGAGCAAUAUUACGGUUA | -2.08 ± 0.18 | -2.21 ± 0.15
GGUGAGCAAUAUUACGUAGA | -2.19 ± 0.29 | -3.01 ± 0.33
GUCGAGCAAUAUUACGCUCG | – | -1.76 ± 0.37
GAAUAGCAAUAUUACGAUCG | -0.178 ± 0.27 | 1.29 ± 0.19
CAGUAGCAAUAUUACGUGCC | -1.93 ± 0.27 | -3.68 ± 0.35
GCUCAGCAAUAUUACGAACC | 0.355 ± 0.23 | -1.34 ± 0.22
UCUUAGCAAUAUUACGGCUA | -2.34 ± 0.42 | -2.85 ± 0.41
UUUUAGCAAUAUUACGGUUG | -0.623 ± 0.23 | -1.77 ± 0.15
GUAAAGCAAUAUUACGACCG | -0.23 ± 0.36 | -0.799 ± 0.43
CUGAAGCAAUAUUACGAUUU | -1.6 ± 0.24 | -3.34 ± 0.2
CGUGAGCAAUAUUACGGAGG | -0.9 ± 0.14 | -2.69 ± 0.17
CGGUAGCAAUAUUACGGCGA | -2.13 ± 0.26 | -2.69 ± 0.27
AACUAGCAAUAUUACGCAAC | -2.08 ± 0.18 | -3.49 ± 0.21
UGUAAGCAAUAUUACGCCAG | -1.07 ± 0.33 | -1.82 ± 0.34
GGCAAGCAAUAUUACGUUUG | -2.83 ± 0.22 | -3 ± 0.13
CUGGAGCAAUAUUACGCGGU | -2.46 ± 0.24 | -1.94 ± 0.1
CGAUAGCAAUAUUACGACUC | -1.38 ± 0.17 | -1.15 ± 0.15
AAUAAGCAAUAUUACGUCAC | -3.17 ± 0.21 | -3.19 ± 0.17
